Patent publication US20160002331A1 (Pfizer, published 2016)
Numbering of substitutions follows the chain as printed. Names may count otherwise. “And” between values parts separate entries of the source, which are not always exact repeats. Equal values may be shown once. Values belong to the binder of their own block, whether it stands above or below them.

Experiments:
[1] = target: T1, human Notch1 NRR_Avi_His recombinant protein (human, UniProt P46531 1434-1737); test: SPR (Biacore T100), antibody captured by anti-human IgG-Fc, NRR_Avi_His as analyte, 1:1 Langmuir model
T1 construct: Secreted from CHO-PACE cells; cleaved at S1 into an N-terminal ~26 kDa half (LNR-A, B, C, HD1) and a C-terminal ~12 kDa half (HD2 and tag) that stay associated non-covalently; written here as one chain; also called recombinant human Notch1 NRR; human Notch1 NRR immunogen
T1 sequence: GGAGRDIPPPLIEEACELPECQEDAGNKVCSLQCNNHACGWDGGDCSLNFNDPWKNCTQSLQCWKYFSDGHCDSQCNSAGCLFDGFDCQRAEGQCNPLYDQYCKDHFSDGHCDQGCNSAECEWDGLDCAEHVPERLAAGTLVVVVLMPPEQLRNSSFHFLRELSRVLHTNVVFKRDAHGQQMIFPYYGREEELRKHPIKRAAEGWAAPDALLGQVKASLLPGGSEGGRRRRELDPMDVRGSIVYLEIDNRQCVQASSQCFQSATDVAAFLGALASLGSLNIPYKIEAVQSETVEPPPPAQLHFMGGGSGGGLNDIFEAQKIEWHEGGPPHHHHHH
Protocol: (§1) The kinetic constants of the anti-Notch1 NRR interactions were determined by surface plasmon resonance (Biacore® T100, Biacore Inc., Piscataway, N.J.). Flow cells of a CM5 chip were immobilized with approximately 10,000 Resonance Unit (RU) of anti-human IgG-Fc (Biacore®) in 10 mM Glycine, pH 5.0 at 10 μl/min for 600 seconds. […] Association of four concentrations of human Notch1 NRR_Avi_His recombinant protein (from 3.7-100 nM) and a zero concentration (running buffer) at 100 μl/min were recorded for 3 minutes in TBS with 1 mM CaCl₂. Dissociation of the complexes was measured for 10 minutes. The surface of the chip was regenerated by injecting 3M MgCl₂ with 3 mM EGTA for 60 seconds at 10 μl/min. Curves obtained after subtraction of the reference and buffer signals were fitted to a 1:1 Langmuir binding model with Biacore® T100 Evaluation Software (Biacore®).

[2] = target: T2, full-length human Notch1 expressed on the cell surface (human, UniProt P46531 19-2555); test: cell-based or functional assay
T2 sequence (P46531 19-2555): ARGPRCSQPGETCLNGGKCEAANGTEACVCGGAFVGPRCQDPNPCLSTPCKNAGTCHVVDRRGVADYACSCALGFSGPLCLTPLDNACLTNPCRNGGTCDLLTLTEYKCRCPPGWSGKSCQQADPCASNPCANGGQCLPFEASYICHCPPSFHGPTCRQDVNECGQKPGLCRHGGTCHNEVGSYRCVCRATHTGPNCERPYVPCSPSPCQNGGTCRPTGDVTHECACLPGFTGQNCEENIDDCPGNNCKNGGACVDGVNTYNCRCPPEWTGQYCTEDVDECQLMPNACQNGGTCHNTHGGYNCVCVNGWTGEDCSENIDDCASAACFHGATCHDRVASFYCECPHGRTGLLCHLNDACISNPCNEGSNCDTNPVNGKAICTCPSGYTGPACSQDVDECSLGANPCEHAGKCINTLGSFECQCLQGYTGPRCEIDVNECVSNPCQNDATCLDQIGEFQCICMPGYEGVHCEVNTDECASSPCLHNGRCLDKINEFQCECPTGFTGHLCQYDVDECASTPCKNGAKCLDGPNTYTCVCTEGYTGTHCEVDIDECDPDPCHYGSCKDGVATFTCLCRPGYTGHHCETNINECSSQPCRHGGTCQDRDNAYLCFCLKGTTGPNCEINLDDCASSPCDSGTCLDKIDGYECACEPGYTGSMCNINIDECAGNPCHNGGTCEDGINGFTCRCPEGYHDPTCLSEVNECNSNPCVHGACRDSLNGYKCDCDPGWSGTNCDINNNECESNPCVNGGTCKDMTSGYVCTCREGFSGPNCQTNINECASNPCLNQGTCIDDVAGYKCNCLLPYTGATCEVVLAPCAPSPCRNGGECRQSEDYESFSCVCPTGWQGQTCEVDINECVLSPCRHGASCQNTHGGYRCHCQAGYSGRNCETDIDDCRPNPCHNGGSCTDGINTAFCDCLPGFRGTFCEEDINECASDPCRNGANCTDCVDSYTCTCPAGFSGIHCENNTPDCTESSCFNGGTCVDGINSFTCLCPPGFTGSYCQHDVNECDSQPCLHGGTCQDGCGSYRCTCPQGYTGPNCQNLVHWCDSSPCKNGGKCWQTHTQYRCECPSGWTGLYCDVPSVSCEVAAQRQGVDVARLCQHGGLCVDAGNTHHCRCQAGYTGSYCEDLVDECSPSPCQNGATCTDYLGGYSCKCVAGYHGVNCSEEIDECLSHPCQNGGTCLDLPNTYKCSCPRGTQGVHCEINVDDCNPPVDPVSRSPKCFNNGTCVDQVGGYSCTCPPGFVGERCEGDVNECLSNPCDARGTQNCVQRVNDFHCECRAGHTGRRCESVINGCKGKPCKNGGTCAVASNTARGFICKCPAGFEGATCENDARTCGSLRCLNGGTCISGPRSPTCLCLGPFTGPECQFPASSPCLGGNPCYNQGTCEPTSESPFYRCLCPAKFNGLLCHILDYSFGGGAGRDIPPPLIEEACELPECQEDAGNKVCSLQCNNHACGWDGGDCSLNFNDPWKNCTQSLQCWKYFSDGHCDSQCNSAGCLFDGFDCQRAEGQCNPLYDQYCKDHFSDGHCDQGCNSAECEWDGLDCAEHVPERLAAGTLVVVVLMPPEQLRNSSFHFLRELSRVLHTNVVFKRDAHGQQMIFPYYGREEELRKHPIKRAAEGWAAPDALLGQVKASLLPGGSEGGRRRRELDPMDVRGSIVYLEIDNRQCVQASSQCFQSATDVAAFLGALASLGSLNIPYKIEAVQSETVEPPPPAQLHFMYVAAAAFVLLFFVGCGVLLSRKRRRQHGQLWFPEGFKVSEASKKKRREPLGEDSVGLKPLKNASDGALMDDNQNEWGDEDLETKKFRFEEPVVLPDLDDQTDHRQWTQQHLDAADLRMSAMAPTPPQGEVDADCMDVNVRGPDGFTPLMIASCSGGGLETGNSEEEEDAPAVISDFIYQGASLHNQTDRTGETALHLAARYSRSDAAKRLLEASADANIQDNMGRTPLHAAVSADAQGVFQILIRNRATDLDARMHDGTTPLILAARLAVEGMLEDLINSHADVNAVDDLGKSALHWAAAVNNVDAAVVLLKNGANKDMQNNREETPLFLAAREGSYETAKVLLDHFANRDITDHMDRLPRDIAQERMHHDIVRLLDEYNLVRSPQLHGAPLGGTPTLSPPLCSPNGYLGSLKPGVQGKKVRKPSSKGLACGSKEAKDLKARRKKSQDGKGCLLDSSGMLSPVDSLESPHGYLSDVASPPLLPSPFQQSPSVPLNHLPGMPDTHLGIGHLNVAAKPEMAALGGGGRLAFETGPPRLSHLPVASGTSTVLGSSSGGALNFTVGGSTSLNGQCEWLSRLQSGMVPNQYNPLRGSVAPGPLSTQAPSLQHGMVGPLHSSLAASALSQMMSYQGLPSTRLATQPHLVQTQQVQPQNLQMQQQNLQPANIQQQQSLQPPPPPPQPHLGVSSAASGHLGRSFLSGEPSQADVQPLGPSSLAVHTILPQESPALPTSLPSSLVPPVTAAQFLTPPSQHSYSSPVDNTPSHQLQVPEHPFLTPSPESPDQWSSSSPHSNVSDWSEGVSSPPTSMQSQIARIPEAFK

[3] = target: T2, full-length human Notch1 expressed on …; test: competition ELISA on U-2 OS cells expressing full-length human Notch1; competitor 0.8 nM biotinylated rat 438
Protocol: (§2) In a similar manner as described for recombinant protein or cell based ELISAs, 96 well cell culture plates were either coated with Notch1 NRR-Avi_His protein (hi-bound co-Star plates), or seeded with full length Notch1 expressing U-2 OS cells (cell culture plate, Co-star), respectively.
(§3) After incubation for 2 hours, the plates were washed, as described above, and HRP-conjugated streptavidin (Southern Biotech) diluted 1:5000 in blocking buffer was applied. Incubation with streptavidin was allowed for 30 min before the plates were washed again and developed with TMB solution for 10 minutes. Developing reaction was stopped by adding 0.18M H₂SO₄ and absorbance at 450 nm was measured. Data plotting and analyses were performed with Microsoft Excel and Graphpad-Prizm software.

[4] = target: T1, human Notch1 NRR_Avi_His recombinant …; test: competition ELISA on coated human Notch1 NRR_Avi_His; competitor 0.8 nM biotinylated rat 438
Protocol: as §2, §3

[5] = target: T2, full-length human Notch1 expressed on …; test: cell-based ELISA, U-2 OS cells expressing full-length human Notch1
Protocol: (§4) Supernatants from clones displaying positive binding to immunogens in recombinant Notch1 NRR based ELISAs described above were then screened for cell surface Notch1 binding in a cell-based ELISA. U-2 OS cells stably overexpressing human or mouse full length Notch1 protein on cell surface were plated at 50,000 cells/well in 96 well plates (white opaque, BD/VWR) the day before ELISA assay. On the day of the ELISA, culture media were removed from wells and serially diluted (1:3 in blocking buffer) antibody solutions or hybridoma culture supernatants were applied to the plate. Plates were incubated at room temperature for 2 hours before being washed with PBS-Mg/Ca. HRP-conjugated secondary antibody was then applied and incubated with cells for 1 hour as described above for recombinant protein ELISA. Plates were washed with PBS-Mg/Ca before being developed with Pico-Chemiluminescent developing kit (Thermal Scientific), and chemiluminescence measurements were performed per manufacturer's instructions. Data plotting and analyses were performed with Microsoft Excel and Graphpad-Prizm software.

[6] = target: T3, full-length mouse Notch1 expressed on the cell surface of U-2 OS cells (mouse, UniProt Q01705 19-2531); test: cell-based ELISA, U-2 OS cells expressing full-length mouse Notch1
T3 construct: whole, on cells; also called murine Notch1
T3 sequence (Q01705 19-2531): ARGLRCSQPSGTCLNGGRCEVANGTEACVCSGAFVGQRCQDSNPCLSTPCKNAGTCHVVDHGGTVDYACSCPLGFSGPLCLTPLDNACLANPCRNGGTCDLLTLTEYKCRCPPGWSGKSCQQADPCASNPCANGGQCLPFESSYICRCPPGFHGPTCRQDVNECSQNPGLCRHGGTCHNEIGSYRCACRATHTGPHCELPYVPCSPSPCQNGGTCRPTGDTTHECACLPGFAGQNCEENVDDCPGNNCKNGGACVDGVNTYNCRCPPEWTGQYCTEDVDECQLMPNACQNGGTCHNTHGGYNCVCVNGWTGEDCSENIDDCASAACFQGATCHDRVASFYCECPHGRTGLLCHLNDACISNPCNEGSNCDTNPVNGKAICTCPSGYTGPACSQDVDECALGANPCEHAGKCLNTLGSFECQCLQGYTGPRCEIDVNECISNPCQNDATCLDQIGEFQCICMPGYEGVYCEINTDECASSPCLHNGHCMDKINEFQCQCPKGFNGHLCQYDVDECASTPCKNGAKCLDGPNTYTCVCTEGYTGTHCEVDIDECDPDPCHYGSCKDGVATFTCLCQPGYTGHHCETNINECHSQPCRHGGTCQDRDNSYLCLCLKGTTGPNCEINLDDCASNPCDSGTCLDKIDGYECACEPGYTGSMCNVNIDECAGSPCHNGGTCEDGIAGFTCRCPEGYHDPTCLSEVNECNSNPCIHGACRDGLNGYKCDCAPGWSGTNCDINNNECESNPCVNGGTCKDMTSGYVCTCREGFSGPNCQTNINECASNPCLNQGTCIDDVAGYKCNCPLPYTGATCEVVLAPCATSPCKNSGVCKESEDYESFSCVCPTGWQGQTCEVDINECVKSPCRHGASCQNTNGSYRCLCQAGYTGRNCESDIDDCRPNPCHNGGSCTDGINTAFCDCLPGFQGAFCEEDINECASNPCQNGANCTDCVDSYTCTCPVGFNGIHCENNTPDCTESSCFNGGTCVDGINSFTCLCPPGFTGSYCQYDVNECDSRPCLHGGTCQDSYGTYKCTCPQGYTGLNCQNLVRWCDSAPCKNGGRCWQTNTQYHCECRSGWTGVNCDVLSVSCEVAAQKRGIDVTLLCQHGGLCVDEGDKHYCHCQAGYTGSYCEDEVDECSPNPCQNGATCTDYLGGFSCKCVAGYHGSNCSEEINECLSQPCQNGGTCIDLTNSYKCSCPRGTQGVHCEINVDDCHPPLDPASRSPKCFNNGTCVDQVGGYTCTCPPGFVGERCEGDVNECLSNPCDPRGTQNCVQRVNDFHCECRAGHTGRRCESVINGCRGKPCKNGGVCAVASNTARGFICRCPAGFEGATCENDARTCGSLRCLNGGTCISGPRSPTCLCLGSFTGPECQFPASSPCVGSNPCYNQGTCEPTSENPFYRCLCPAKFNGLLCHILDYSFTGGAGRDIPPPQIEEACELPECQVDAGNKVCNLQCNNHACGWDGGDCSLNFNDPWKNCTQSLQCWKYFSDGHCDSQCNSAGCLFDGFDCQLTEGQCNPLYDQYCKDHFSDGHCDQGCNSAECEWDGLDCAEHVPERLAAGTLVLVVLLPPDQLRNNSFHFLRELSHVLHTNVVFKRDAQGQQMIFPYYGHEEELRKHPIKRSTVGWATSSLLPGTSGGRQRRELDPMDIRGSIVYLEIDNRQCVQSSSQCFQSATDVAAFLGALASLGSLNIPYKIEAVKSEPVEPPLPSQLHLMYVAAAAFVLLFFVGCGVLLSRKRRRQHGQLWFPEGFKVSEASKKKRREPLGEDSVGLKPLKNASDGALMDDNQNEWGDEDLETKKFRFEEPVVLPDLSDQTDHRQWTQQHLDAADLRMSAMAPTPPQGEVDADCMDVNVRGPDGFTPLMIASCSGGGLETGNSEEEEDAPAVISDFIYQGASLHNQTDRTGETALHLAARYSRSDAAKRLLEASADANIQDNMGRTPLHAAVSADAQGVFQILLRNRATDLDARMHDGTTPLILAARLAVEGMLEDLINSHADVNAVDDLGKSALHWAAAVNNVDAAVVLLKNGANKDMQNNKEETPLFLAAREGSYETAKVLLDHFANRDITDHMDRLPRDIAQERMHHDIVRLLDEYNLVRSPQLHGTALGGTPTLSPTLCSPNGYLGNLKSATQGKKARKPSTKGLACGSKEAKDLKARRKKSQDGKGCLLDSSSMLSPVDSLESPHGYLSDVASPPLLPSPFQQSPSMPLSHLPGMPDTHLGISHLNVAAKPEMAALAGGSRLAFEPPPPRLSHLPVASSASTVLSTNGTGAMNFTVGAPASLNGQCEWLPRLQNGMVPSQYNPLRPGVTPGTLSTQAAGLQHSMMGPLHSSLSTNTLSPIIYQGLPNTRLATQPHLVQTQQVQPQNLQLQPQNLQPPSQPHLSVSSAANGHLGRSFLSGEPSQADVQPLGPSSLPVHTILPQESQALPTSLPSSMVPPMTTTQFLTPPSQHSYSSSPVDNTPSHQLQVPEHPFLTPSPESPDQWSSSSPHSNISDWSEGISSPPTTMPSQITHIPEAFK
Protocol: as §4

[7] = target: T1, human Notch1 NRR_Avi_His recombinant …; test: SPR (Biacore T100), ratio of KD to that of rat 438-hIgG1
Protocol: as §1

[8] = target: T3, full-length mouse Notch1 expressed on …; test: cell-based or functional assay
[9] = target: Notch1 receptor with L1575P mutation (HPB-ALL cells) (UniProt P46531 19-2555, limits assumed); test: cell-based or functional assay
Chain of Notch1 receptor with L1575P mutation (HPB-ALL cells) (P46531 19-2555 L1593P limits assumed): as the sequence (P46531 19-2555) above, with L1575P counted along it

[10] = target: T2, full-length human Notch1 expressed on …; test: cell-based or functional assay; remark: listed apart in the source

B1: humanized 438 VH1.1/VL1.1 (antibody, human IgG1, V domains shown)
VH: EVQLVESGGGLVQPGGSLRLSCAASGFTFSSFAMAWVRQAPGKGLEWVASISYGGADTYYRDSVKGRFTISRDNAKNSLYLQMNSLRAEDTAVYYCAKDLPYYGYTPFVMDAWGQGTLVTVSS
VL: DIQLTQSPSSLSASVGDRVTITCRASQRINTDLHWYQQKPGKAPKVLIKFASQTISGVPSRFSGSGSGTDFTLTISSLQPEDFATYYCQQSNSWPYTFGQGTKLEIK
- Kd [1]: 9.65 nM and 9.6 nM
- koff [1]: 0.000422 s⁻¹
- kon [1]: 43700 M⁻¹ s⁻¹
- IC50, human Notch1 reporter gene co-culture assay (DLL4-HEK293) [2]: 0.657 nM
- EC50 [3]: 2.4 nM
- EC50 [4]: 0.6 nM
- EC50 [5]: 0.177 nM
- EC50 [6]: 0.129 nM
- Fold difference from rat 438 [7]: 2.21 fold

B2: humanized 438 VH1.1/VL1.0 (antibody, human IgG1, V domains shown)
VH: B1 VH
VL: B1 VL with L4M, V46L, K49Y
- Kd [1]: 21.8 nM
- koff [1]: 0.00103 s⁻¹
- kon [1]: 47400 M⁻¹ s⁻¹
- IC50, human Notch1 reporter gene co-culture assay (DLL4-HEK293) [2]: 0.46 nM
- EC50 [3]: 2.8 nM
- EC50 [4]: 1.1 nM
- EC50 [5]: 0.296 nM
- EC50 [6]: 0.144 nM
- Fold difference from rat 438 [7]: 5.02 fold

B3: humanized 438 VH1.1/VL1.5 (antibody, human IgG1, V domains shown)
VH: B1 VH
VL: B1 VL with L4M, V46L
- IC50, human Notch1 reporter gene co-culture assay (DLL4-HEK293) [2]: 0.35 nM
- IC50, mouse Notch1 reporter gene co-culture assay (DLL4-HEK293) [8]: 0.5 nM
- EC50 [3]: 3.3 nM
- EC50 [4]: 7 nM
- EC50 [5]: 0.219 nM
- EC50 [6]: 0.146 nM

B4: humanized 438 VH1.1/VL1.9 (antibody, human IgG1, V domains shown)
VH: B1 VH
VL: B1 VL with Q3M
- IC50, human Notch1 reporter gene co-culture assay (DLL4-HEK293) [2]: 0.38 nM
- EC50 [3]: 2.2 nM
- EC50 [4]: 0.4 nM
- EC50 [5]: 0.178 nM
- EC50 [6]: 0.137 nM

B5: humanized 438 VH1.1/VL1.3 (antibody, human IgG1, V domains shown)
VH: B1 VH
VL: B1 VL with V46L, K49Y
- Kd [1]: 1.83 nM
- koff [1]: 0.000442 s⁻¹
- kon [1]: 242000 M⁻¹ s⁻¹
- IC50, human Notch1 reporter gene co-culture assay (DLL4-HEK293) [2]: 0.45 nM
- IC50, mouse Notch1 reporter gene co-culture assay (DLL4-HEK293) [8]: 0.62 nM
- EC50 [3]: 2.8 nM
- EC50 [4]: 2.5 nM
- EC50 [5]: 0.152 nM
- EC50 [6]: 0.0934 nM
- Fold difference from rat 438 [7]: 0.42 fold

B6: humanized 438 VH1.0/VL1.8 (antibody, human IgG1, V domains shown)
VH: B1 VH with K98R
VL: B1 VL with L4M
- IC50, human Notch1 reporter gene co-culture assay (DLL4-HEK293) [2]: 1.87 nM
- IC50, mouse Notch1 reporter gene co-culture assay (DLL4-HEK293) [8]: 1.37 nM
- EC50 [3]: 11.6 nM
- EC50 [4]: 2.1 nM

B7: humanized 438 VH1.0/VL1.1 (antibody, human IgG1, V domains shown)
VH: B1 VH with K98R
VL: B1 VL
- Kd [1]: 6.42 nM and 6.4 nM
- koff [1]: 0.000389 s⁻¹
- kon [1]: 60500 M⁻¹ s⁻¹
- IC50, human Notch1 reporter gene co-culture assay (DLL4-HEK293) [2]: 1.19 nM
- EC50 [3]: 4 nM
- EC50 [4]: 0.7 nM
- EC50 [5]: 0.305 nM
- EC50 [6]: 0.229 nM
- Fold difference from rat 438 [7]: 1.47 fold

Further lines, with some results ahead:

- Kd [1]: 4.34 nM
- koff [1]: 0.000229 s⁻¹
- kon [1]: 52700 M⁻¹ s⁻¹
- IC50, human Notch1 reporter gene co-culture assay (DLL4-HEK293) [2]: 0.65 nM
- EC50 [3]: 4.4 nM
- EC50 [4]: 2.1 nM
- Fold difference from rat 438 [7]: 1 fold
B8: rat 438-hIgG1 (antibody, V domains shown)
VH: AVQLVESGGGLVQPGRSLKLSCTASGFTFSSFAMAWVRQAPTKGLEWVASISYGGADTYYRDSVKGRFTISRDNAKSSLYLQMDSLRSEDTSTYYCAKDLPYYGYTPFVMDAWGQGTSVTVSS
VL: DIMLTQSPPTLSVTPGETISLSCRASQRINTDLHWYQQKPNESPRVLIKFASQTISGVPSRFSGSGSGTDFTLNINRVEPEDFSVYYCQQSNSWPYTFGAGTKLELK
notes: also called r438-hIgG

- EC50 [5]: 0.213 nM
- EC50 [6]: 0.172 nM
B9: parental rat 438 (antibody, V domains shown)
VH: B8 VH
VL: B8 VL
notes: Rat monoclonal IgG from a hybridoma

- IC50, Notch1 signaling inhibition co-culture reporter assay [10]: 0.21 nM
- Maximal Inhibition (%), Notch1 signaling inhibition co-culture reporter assay [10]: 95.3%
B10: rat 351(R58Y)-mIgG1 (antibody, V domains shown)
VH: EVQLVESGGGLVQPGRSLKVSCLASGFTFSHYGMNWIRQAPGKGLDWVASISRSGSYIYYVDTVKGRFTVSRDIAKNTLYLQMTSLRSEDTALYYCAREGQFGDYFEYWGQGVMVTVSS
VL: DIMLTQSPATLSVTPGERISLSCRASQKISTNLHWYQQKPNESPRILIKYASQTISGIPSRFSGSGSGTDFTLHINTVEPEDFSVYYCQQTNSWPLTFGSGTKLEIK
- IC50, MTS viability assay of HPB-ALL leukemia cells [9]: 2.17 nM

- IC50, Notch1 signaling inhibition co-culture reporter assay [10]: 0.11 nM
- Maximal Inhibition (%), Notch1 signaling inhibition co-culture reporter assay [10]: 95.3%
B11: rat 351(R58Y/V60R)-mIgG1 (antibody, V domains shown)
VH: B10 VH with V61R
VL: B10 VL

- IC50, Notch1 signaling inhibition co-culture reporter assay [10]: 0.16 nM
- Maximal Inhibition (%), Notch1 signaling inhibition co-culture reporter assay [10]: 95.3%
B12: rat 351(R58Y/V60A)-mIgG1 (antibody, V domains shown)
VH: B10 VH with V61A
VL: B10 VL
- IC50, MTS viability assay of HPB-ALL leukemia cells [9]: 2.49 nM
